The chains are these.
B1: Lip-VEL1VEL (residues 589–692), wild type [Arabidopsis thaliana] / itself (parent)
chain: SDEIKNRQARIEISMKDNCNNGDHSANGGTESGLEHCVKIIRQLECSGHIDKNFRQKFLTWYSLRATSQEIRVVKIFIDTFIDDPMALAEQLIDTFDDRVSIKR
B2: Lip-VIN3VEL (residues 500–603), wild type [Arabidopsis thaliana] / itself (parent)
chain: GKQGGNKRFKSRTVSLNEKPEINNAANGVGDKDLGHIVKTIRCLEEEGHIDKSFRERFLTWYSLRATHREVRVVKIFVETFMEDLSSLGQQLVDTFSESILSKR

Test in all cases: SEC-MALS
A general note: In gel filtration, larger molecules generally elute earlier.

Variants of B1 are the subject of experiment [1]. To be noted: with itself; 255 µM sample; predicted molecular mass 23.4 kDa.
The variants in experiment [2] derive from B1. To be noted: with itself; 255 µM sample; predicted molecular mass 23.4 kDa. The source holds these as a separate data set.
Variants of B2 are the subject of experiment [3]. To be noted: with itself; predicted molecular mass 20.3 kDa; concentration not given.
The variants in experiment [4] derive from B2. To be noted: with itself; predicted molecular mass 20.3 kDa; concentration not given. This is another data set of the same source.

Turning to SDEIKNRQARIEISMKDNCNNGDHSANGGTESGLEHCVKIIRQLECSGHIDKNFAQDFLTWYSLRATSQEIRVVKIFIDTFIDDPMALAEQLIDTFDDRVSIKR, the screen value is 1.1 molecules with itself [1] and 25 kDa in the experiment with itself [2].

With GKQGGNKRFKSRTVSLNEKPEINNAANGVGDKDLGHIVKTIRCLEEEGHIDKSFREDFLTWYSLRATHREVRVVKIFVETFMEDLSSLGQQLVDTFSESILSKR, the screen value with itself [3] is 1.2 molecules; in the experiment with itself [4], 24.6 kDa.

Take GKQGGNKRFKSRTVSLNEKPEINNAANGVGDKDLGHIVKTIRCLEEEGHIDKSFRERFLTWYSDRATHREVRVVKIFVETFMEDLSSLGQQLVDTFSESILSKR: the screen value with itself [3] is 1.6 molecules; with itself [4], 33.5 kDa.

Regarding GKQGGNKRFKSRTVSLNEKPEINNAANGVGDKDLGHIVKTIHCLEEEGHIDKSFRERFLTWYSLRATHREVRVVKIFVETFMEDLSSLGQQLVDTFSESILSKR, the screen value in the experiment with itself [3] is 1.2 molecules; with itself [4], 23.8 kDa.

The values above are taken from publication PMC7614096, “Head-to-tail polymerization by VEL proteins underpins cold-induced Polycomb silencing in flowering control” (Cell Reports, 2022).
